Measured values from publication doi:10.1101/2022.06.02.494603.

Target: optineurin, C-terminal myc-FLAG-tagged, Q96CV9
Test: co-IP
Conditions: remark: other sources report otherwise

Chain of optineurin, C-terminal myc-FLAG-tagged, Q96CV9 (Q96CV9 whole entry): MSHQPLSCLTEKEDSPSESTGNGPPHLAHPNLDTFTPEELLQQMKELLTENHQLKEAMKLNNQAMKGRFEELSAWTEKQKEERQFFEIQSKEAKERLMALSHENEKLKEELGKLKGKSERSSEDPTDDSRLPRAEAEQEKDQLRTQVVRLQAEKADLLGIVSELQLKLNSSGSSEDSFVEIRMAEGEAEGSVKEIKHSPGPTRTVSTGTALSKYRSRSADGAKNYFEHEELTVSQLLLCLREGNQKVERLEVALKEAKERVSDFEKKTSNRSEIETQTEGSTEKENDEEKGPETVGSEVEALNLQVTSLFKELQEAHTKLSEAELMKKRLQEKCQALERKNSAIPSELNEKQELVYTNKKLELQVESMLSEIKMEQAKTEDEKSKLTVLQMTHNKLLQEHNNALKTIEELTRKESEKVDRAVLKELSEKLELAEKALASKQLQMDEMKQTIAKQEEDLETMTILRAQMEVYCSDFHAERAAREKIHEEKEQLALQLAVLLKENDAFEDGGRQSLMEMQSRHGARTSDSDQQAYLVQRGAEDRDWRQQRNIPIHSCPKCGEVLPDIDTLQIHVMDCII

Binder	TBK1 bound to OPTN relative to wild type (relative to TBK1 WT)
TBK1 p.E696K, untagged, Q9UHD2 1-729 (natural protein) MQSTSNHLWLLSDILGQGATANVFRGRHKKTGDLFAIKVFNNISFLRPVDVQMREFEVLKKLNHKNIVKLFAIEEETTTRHKVLIMEFCPCGSLYTVLEEPSNAYGLPESEFLIVLRDVVGGMNHLRENGIVHRDIKPGNIMRVIGEDGQSVYKLTDFGAARELEDDEQFVSLYGTEEYLHPDMYERAVLRKDHQKKYGATVDLWSIGVTFYHAATGSLPFRPFEGPRRNKEVMYKIITGKPSGAISGVQKAENGPIDWSGDMPVSCSLSRGLQVLLTPVLANILEADQEKCWGFDQFFAETSDILHRMVIHVFSLQQMTAHKIYIHSYNTATIFHELVYKQTKIISSNQELIYEGRRLVLEPGRLAQHFPKTTEENPIFVVSREPLNTIGLIYEKISLPKVHPRYDLDGDASMAKAITGVVCYACRIASTLLLYQELMRKGIRWLIELIKDDYNETVHKKTEVVITLDFCIRNIEKTVKVYEKLMKINLEAAELGEISDIHTKLLRLSSSQGTIETSLQDIDSRLSPGGSLADAWAHQEGTHPKDRNVEKLQVLLNCMTEIYYQFKKDKAERRLAYNEEQIHKFDKQKLYYHATKAMTHFTDECVKKYEAFLNKSEEWIRKMLHLRKQLLSLTNQCFDIEEEVSKYQEYTNELQETLPQKMFTASSGIKHTMTPIYPSSNTLVEMTLGMKKLKEKMEGVVKELAENNHILERFGSLTMDGGLRNVDCL	0.02
TBK1 G217R, untagged, Q9UHD2 1-729 (natural protein) MQSTSNHLWLLSDILGQGATANVFRGRHKKTGDLFAIKVFNNISFLRPVDVQMREFEVLKKLNHKNIVKLFAIEEETTTRHKVLIMEFCPCGSLYTVLEEPSNAYGLPESEFLIVLRDVVGGMNHLRENGIVHRDIKPGNIMRVIGEDGQSVYKLTDFGAARELEDDEQFVSLYGTEEYLHPDMYERAVLRKDHQKKYGATVDLWSIGVTFYHAATRSLPFRPFEGPRRNKEVMYKIITGKPSGAISGVQKAENGPIDWSGDMPVSCSLSRGLQVLLTPVLANILEADQEKCWGFDQFFAETSDILHRMVIHVFSLQQMTAHKIYIHSYNTATIFHELVYKQTKIISSNQELIYEGRRLVLEPGRLAQHFPKTTEENPIFVVSREPLNTIGLIYEKISLPKVHPRYDLDGDASMAKAITGVVCYACRIASTLLLYQELMRKGIRWLIELIKDDYNETVHKKTEVVITLDFCIRNIEKTVKVYEKLMKINLEAAELGEISDIHTKLLRLSSSQGTIETSLQDIDSRLSPGGSLADAWAHQEGTHPKDRNVEKLQVLLNCMTEIYYQFKKDKAERRLAYNEEQIHKFDKQKLYYHATKAMTHFTDECVKKYEAFLNKSEEWIRKMLHLRKQLLSLTNQCFDIEEEVSKYQEYTNELQETLPQKMFTASSGIKHTMTPIYPSSNTLVEMTLGMKKLKEEMEGVVKELAENNHILERFGSLTMDGGLRNVDCL	0.27
